Here are results for 34 sequences from the Immune Epitope Database (IEDB).

One assay deals with HLA-B*44:02. As to the kind of experiment: IEDB peptide-MHC binding, purified MHC/competitive/radioactivity; filed as Kd, often an IC50 or EC50 that approximates it; ≥ and ≤ were set here for values at or beyond the usual limits of such assays.
A further assay addresses HLA-B*44:03. The description is as above.
The next assay has as its target HLA-B*58:01. As to the kind of experiment: IEDB peptide-MHC binding, purified MHC/direct/fluorescence; filed as Kd, often an IC50 or EC50 that approximates it; ≥ and ≤ were set here for values at or beyond the usual limits of such assays. The settings on record: source organism: Orthohantavirus dobravaense.
Another assay has as its target HLA-B*57:01. The assay is described as above.
The target of another assay is HLA-A*32:01. As to the kind of experiment: IEDB peptide-MHC binding, purified MHC/competitive/radioactivity; filed as Kd, often an IC50 or EC50 that approximates it; ≥ and ≤ were set here for values at or beyond the usual limits of such assays.
The target in the next assay is HLA-A*29:02. Described as above.
The next assay deals with HLA-A*30:02. The description is as above.
The next assay has as its target HLA-A*26:01. Described as above.
For another assay, the target named is HLA-A*30:01. Described as above.
A further assay has as its target HLA-A*01:01. The assay is described as above.
In the next assay the target is HLA-A*68:02. Described as above.
In the next assay the target is HLA-A*02:06. The description is as above.
The target of the next assay is HLA-B*40:01. The assay is described as above. The note with it: source organism: Dengue virus 4 Philippines/H241/1956.
The next assay has as its target HLA-A*02:01. The assay is described as above.
In the next assay the target is HLA-A*02:03. The description is as above.
A further assay has as its target HLA-B*15:01. As to the kind of experiment: IEDB peptide-MHC binding, purified MHC/competitive/fluorescence; filed as Kd, often an IC50 or EC50 that approximates it; ≥ and ≤ were set here for values at or beyond the usual limits of such assays. The note with it: source organism: Human immunodeficiency virus 1.
The target in the next assay is HLA-A*02:02. In words: IEDB peptide-MHC binding, purified MHC/competitive/radioactivity; filed as Kd, often an IC50 or EC50 that approximates it; ≥ and ≤ were set here for values at or beyond the usual limits of such assays. The note with it: source organism: HIV-1 M:B_ARV2/SF2.
A further assay deals with HLA-B*46:01. In words: IEDB peptide-MHC binding, purified MHC/competitive/fluorescence; filed as Kd, often an IC50 or EC50 that approximates it; ≥ and ≤ were set here for values at or beyond the usual limits of such assays. The note with it: source organism: Vibrio vulnificus CMCP6.
[1] abbreviates: source organism: Dengue virus 2 Jamaica/1409/1983.
Setting [2] is: source organism: Mammarenavirus brazilense.
Where [3] appears, read: source organism: Dengue virus 3 Martinique/1243/1999.
Setting [4] is: source organism: Dengue virus 3 Singapore/8120/1995.
Setting [5] is: source organism: Dengue virus 4 Philippines/H241/1956.
Setting [6] is: source organism: Vaccinia virus WR.
Setting [7] is: source organism: Mammarenavirus guanaritoense.
Setting [8] is: source organism: Dengue virus 1 Brazil/97-11/1997.
Where [9] appears, read: source organism: HIV-1 M:B_ARV2/SF2.

For LERAADVKW, the values for the Kd with HLA-B*44:02 (setting [1]) and with HLA-B*44:03 (setting [1]) were 130 nM and 214 nM, respectively. In the case of KALIATATW, the Kd (in general, a measure of binding affinity in units of concentration) was 12.5 nM with HLA-B*58:01 and 25.3 nM with HLA-B*57:01 (source organism: Orthohantavirus dobravaense). As for GSLLHGLWPY, the Kd is 1110 nM with HLA-A*32:01 (setting [2]); 401 nM with HLA-A*29:02 (setting [2]); 40.4 nM with HLA-A*30:02 (setting [2]); at least 27300 nM in the assay with HLA-A*26:01 (setting [2]); 102 nM in the assay with HLA-A*30:01 (setting [2]); 496 nM with HLA-A*01:01 (setting [2]).

On to KEVSETQHG, for which the equilibrium dissociation constant (Kd) with HLA-B*44:02 (setting [3]) turned out to be 6770 nM. In the case of LFSGVSWVMK, the Kd in the assay with HLA-A*32:01 (setting [3]) came out at 10100 nM. In the case of NMALKKIREL, the Kd with HLA-A*68:02 (source organism: Homo sapiens) is at least 60000 nM. For the sequence LTAAVLLLV, the Kd with HLA-A*02:06 (setting [4]) is 120 nM; in the assay with HLA-A*68:02 (setting [4]), 1.36 nM; in the assay with HLA-A*01:01 (setting [4]), 16700 nM. Take EENMEVEIW: the figures for the Kd with HLA-B*44:02 (setting [5]) and with HLA-B*44:03 (setting [5]) were 23.4 nM and 81.5 nM, respectively. For the sequence RLENVMWKQI, the Kd with HLA-A*32:01 (source organism: Dengue virus 4 Dominica/814669/1981) came to 1840 nM.

Consider ITHFCSFNI, for which, in the assay with HLA-A*32:01 (setting [6]), the Kd is at least 20900 nM. As for LEPPFGDSYI, the equilibrium dissociation constant (Kd) with HLA-B*40:01 came to 6420 nM. For the sequence AVWDQYKDL, the Kd with HLA-A*02:01 (source organism: Lassa virus Josiah) was 12500 nM. Consider KEKVVGRII, for which, in the assay with HLA-B*40:01, the Kd came out at 2860 nM. As for MAVGMVSILA, in the assay with HLA-A*68:02 (setting [1]), the Kd was determined as 3.29 nM. As to SVSGTFVAEF, the Kd in the assay with HLA-A*32:01 (setting [7]) was 4410 nM; in the assay with HLA-A*29:02 (setting [7]), 9060 nM; with HLA-A*30:02 (setting [7]) it was 7910 nM; with HLA-A*26:01 (setting [7]) it was 3070 nM; with HLA-A*30:01 (setting [7]), at least 40000 nM; with HLA-A*01:01 (setting [7]) it was at least 45200 nM. As to ESITLATGPL, the Kd worked out at 101 nM in the assay with HLA-A*68:02 (setting [8]) and 1990 nM in the assay with HLA-A*26:01 (setting [8]). In the case of PLEGSEDRII, the Kd is at least 70300 nM in the assay with HLA-A*02:01 (source organism: Homo sapiens) and at least 65200 nM with HLA-A*68:02 (source organism: Homo sapiens). As for SIYGFGVTF, the Kd with HLA-A*32:01 (setting [6]) was 0.113 nM.

Turning to ILNFVAHVY, the equilibrium dissociation constant (Kd) with HLA-A*32:01 (setting [7]) was determined as 939 nM; with HLA-A*29:02 (setting [7]) it was 1.24 nM; with HLA-A*30:02 (setting [7]), 0.522 nM; with HLA-A*26:01 (setting [7]), 12000 nM; with HLA-A*30:01 (setting [7]), 3140 nM; with HLA-A*01:01 (setting [7]) it was 7940 nM. As to HIIIVALTI, the Kd with HLA-A*32:01 (setting [6]) is 78.8 nM. As to EMKTQLEEL, the Kd in the assay with HLA-A*02:03 (source organism: Homo sapiens) is 81.3 nM; with HLA-A*02:01 (source organism: Homo sapiens) it was at least 20800 nM; in the assay with HLA-A*68:02 (source organism: Homo sapiens), 284 nM.

In the assay with HLA-B*15:01, LVGKLNWASQIY gave an equilibrium dissociation constant (Kd) of 2210 nM. As for VEMGEAAAI, the Kd in the assay with HLA-B*44:02 (setting [5]) was found to be 12.9 nM; with HLA-B*44:03 (setting [5]), 27.7 nM; with HLA-B*40:01, 134 nM.

Consider LTAIANQAAI, for which the Kd with HLA-A*68:02 (setting [8]) worked out at 22.9 nM; in the assay with HLA-A*01:01 (setting [8]), 10200 nM. As to IILVIIVVI, in the assay with HLA-A*32:01 (setting [6]), the Kd stood at 415 nM.

Regarding FLGKIWPSYK, the Kd in the assay with HLA-A*02:02 was 449 nM; with HLA-A*02:06 (setting [9]), 3010 nM; with HLA-A*02:03 (setting [9]), 448 nM; with HLA-A*02:01 (setting [9]), 89.9 nM; in the assay with HLA-A*68:02 (setting [9]) it was at least 41200 nM.

As for AAGLQDCTM, the Kd in the assay with HLA-A*02:01 (source organism: Hepatitis C virus (isolate 1)) is at least 50000 nM.

In the case of VSGKLIHEW, the Kd with HLA-B*57:01 (source organism: dengue virus type 3) is 43.5 nM. As for WRFQGSWNTG, the Kd in the assay with HLA-A*32:01 (setting [8]) was at least 49000 nM. As to GLRDCTMLV, the Kd with HLA-A*02:01 (source organism: hepatitis C virus genotype 1a) came to 421 nM. On to ETQHGTVLV, for which the dissociation constant (Kd) came to 2.52 nM with HLA-A*68:02 (setting [8]) and 4910 nM with HLA-A*26:01 (setting [8]). FAIGDWEPY came in with a Kd in the assay with HLA-B*46:01 of 74.1 nM.

As to GEKALKLSWF, the Kd came to 373 nM with HLA-B*44:02 (setting [8]) and 135 nM with HLA-B*44:03 (setting [8]).

Turning to SSKNQTWQIE, in the assay with HLA-A*32:01 (setting [5]), the Kd was at least 31600 nM.
